Data published in patent US7820179B2, “Pegylated PTH as PTH receptor modulators and uses thereof” (Eli Lilly and Company, priority 2006, dated 2010).
Like-named read-outs stand apart in the source and are kept apart here. Each block holds one compound with its values, some of them ahead of it. No end group written: not given here.

Tests used:
[1] = tested on: aged osteopenic ovariectomized rats; test: Aged osteopenic ovariectomized rats: vertebral BMD/BMC, bone biomechanical strength, serum calcium; type: in vivo, rat; conditions: for Hypercalcemic Dose/Femoral Neck Strength Dose / Hypercalcemic Dose/Midshaft Strength Dose / Hypercalcemic Dose/Vertebral BMC Dose / Hypercalcemic Dose/Vertebral BMD Dose / Hypercalcemic Dose/Vertebral Strength Dose: derived from Table 3; for Vertebral BMC Dose: dose at which Sham level of vertebral BMC is achieved; for Vertebral BMD Dose: dose at which Sham level of vertebral BMD is achieved, s.c. every 6 or 7 days for two months; for Fem Neck Strength Dose: dose at which femoral neck strength comparable to sham vehicle control and positive control is achieved; for Midshaft Strength Dose: dose at which midshaft strength comparable to sham vehicle control and positive control is achieved; for Vertebral Strength Dose: dose at which vertebral strength comparable to sham and positive control is achieved; for Hypercalcemia Dose: sera 24 hours after administration, > means highest dose tested, not reached
Description: Hypercalcemia is defined herein as the upper 97.5 percentile serum calcium value of normal ovariectomized vehicle controls for the animal type used, using clinical chemistry data and sera collected from cardiac puncture (International Federation of Clinical Chemistry, H E Solberg in Tietz Fundamentals of Clinical Chemistry, 5th edition, Burtis C A and Ashwood E R, editors, 2001, pp 251-261). The value reflecting the 97.5 percentile is 11.2 mg of calcium per dL of serum from ovx vehicle control. The “Hypercalcemic Dose”, i.e., the dose at which hypercalcemia is observed 24 hours after injection of the test compound using clinical chemistry data and sera collected from cardiac puncture, is determined by interpolation, using regression analysis to fit the calcemic dose response observed 24 hours after administering the compound to ovariectomized rats.
Female Sprague-Dawley rats about 6 months of age are ovariectomized, except for sham controls, and maintained on a 12 hour light/dark cycle at 22° C. with ad lib access to food (TD 89222 with 0.5% Ca and 0.4% P, Teklad, Madison, Wis.) and water. Ovariectomized (Ovx) rats are allowed to lose bone for one month before treatment with compounds of the invention for two additional months. The compound to be tested is subcutaneously administered at various doses (as indicated in Table 3 below) in a vehicle of 20 mM NaH2PO4 in 0.9% NaCl, 3 mg/ml mannitol, pH 5, every 6 or 7 days for two months. Sham and Ovx controls are treated with the vehicle only (“sham vehicle control” and “ovx vehicle control”). Sera are then collected by cardiac puncture under isoflurane anesthesia at necropsy, and analyzed using a clinical chemistry analyzer. Lumbar vertebra L4-6 and left femora are removed, cleaned of soft-tissue and stored in 50% ethanol/saline at 4° C. At room temperature, L-5 in 50% EtOH/saline are wrapped in Parafilm and centered with respect to the QCT gantry (Research M, Stratec). A coronal scout scan of the L-5 vertebra is generated first in 2D before 3D analysis. QCT parameters are measured including BMD (mg/cc), BMC (mg), and cross-sectional area (mm^2). Lumbar vertebra L-5, femoral midshaft, and proximal femur are then prepared for biomechanical testing. Strength (N) is evaluated by loading the specimens to failure as described previously (Sato, et al., Endocrinology, […]:4330-4337, 1997).
Pegylated compounds of the invention are evaluated in this assay relative to a positive control of 3-5 μg/kg/d PTH(1-38). PTH(1-34) and PTH(1-38) are found to be indistinguishable in terms of skeletal efficacy or calcemic effects in osteopenic ovariectomized rats. It has been previously shown that rats administered 5 μg/kg/d (1 nmol/kg/d) PTH(1-34) have a systemic exposure that is about 3 times that of PTH(1-34) (i.e., FORTEO™) in humans (Tashjian and Chabner, J. Bone Miner Res, 17:1151-1161, 2002; Tashjian and Gagel, J. Bone Miner Res, 21:354-365, 2006). […] This is confirmed for PTH(1-38) in this model with a dosing of 3-5 μg/kg/d.

[2] = tested on: aged osteopenic ovariectomized rats; test: Direct comparison of 2 kD and 5 kD pegylated SEQ ID NO: 1 in aged osteopenic ovariectomized rats; type: in vivo, rat; conditions: for Serum Calcium: 24 hours after dosing
Description: A compound of the invention with SEQ ID NO: 1, wherein the mPEG to which it is conjugated is a 2 kD mPEG, is directly compared to a compound of the invention with SEQ ID NO: 1, wherein the mPEG to which it is conjugated is a 5 kD mPEG. Aged osteopenic ovariectomized rats are permitted to lose bone for one month before dosing (nmol/kg as in Table 5 and 6) every 6 days with vehicle alone, or the 2 kD pegylated SEQ ID NO: 1 compound or the 5 kD pegylated SEQ ID NO: 1 compound for 8 weeks.

PTHR1 (PTH Receptor 1) = target: T1, PTHR1 (PTH Receptor 1) (Homo sapiens, UniProt Q03431); test: PTH receptor internalization in HEK 293 cells transfected with PTHR-emGFP; type: cell-based; conditions: 100 nM
T1 construct: host or cells: HEK 293 cells
T1 sequence (Q03431 27-593): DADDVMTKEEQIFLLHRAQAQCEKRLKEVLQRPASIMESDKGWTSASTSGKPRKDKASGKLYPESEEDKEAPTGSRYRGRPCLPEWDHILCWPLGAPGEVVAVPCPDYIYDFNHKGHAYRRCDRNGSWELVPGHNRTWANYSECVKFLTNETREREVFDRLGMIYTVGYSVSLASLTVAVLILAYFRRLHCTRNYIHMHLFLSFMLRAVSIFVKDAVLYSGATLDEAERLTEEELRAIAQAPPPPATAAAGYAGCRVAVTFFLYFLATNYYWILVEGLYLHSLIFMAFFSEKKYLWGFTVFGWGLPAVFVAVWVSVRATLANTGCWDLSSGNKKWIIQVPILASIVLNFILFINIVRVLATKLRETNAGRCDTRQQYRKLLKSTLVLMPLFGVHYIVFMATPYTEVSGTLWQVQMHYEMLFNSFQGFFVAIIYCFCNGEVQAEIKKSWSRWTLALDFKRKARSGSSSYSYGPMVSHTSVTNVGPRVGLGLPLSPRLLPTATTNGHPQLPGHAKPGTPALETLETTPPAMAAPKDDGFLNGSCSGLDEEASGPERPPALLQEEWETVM
Description: The kinetics of PTHR1 (PTH Receptor 1) internalization for compounds of the invention are determined following ligand binding to membrane receptors. HEK 293 cells are transfected with PTHR-emGFP plasmid (Invitrogen).
The cells are seeded at 7,000 cells/well, 100 μL/well into clear bottomed, black, 96 well plate coated with poly-D lysine. 24 hours after being seeded into the 96 well plate, the cells are dosed with 10 μL of a compound to be tested, at final concentrations of 100 nM at staggered time points from 0 minutes to 3 hours. Media is aspirated at end point of dosing. Cells are fixed with 100 μL Prefer (Anatech, Battle Creek, Mich.) for 30 minutes. Prefer is aspirated from the cells, and cells are washed three times with 100 μL 1×PBS. Cells are stained with 100 μL diluted Hoechst nuclear stain (diluted in 1×PBS) for 30 minutes. Hoechst stain is aspirated and replaced with 1×PBS. Plates are stored in the dark at 4° C. until scanning. Cells are scanned within 48 hours using a Cellomics® ArrayScan. Representative data from various timepoints, set forth as percent of vehicle only control (baseline=100%), are presented in Table 8.

[3] = tested on: aged osteopenic ovariectomized rats; test: Weekly PTH(1-34) in aged osteopenic ovariectomized rats; type: in vivo, rat
Description: Six-month old ovariectomized Sprague-Dawley rats are maintained on a 12 hr light/dark cycle at 22° C. with ad lib access to food (TD 89222 with 0.5% Ca and 0.4% P, Teklad, Madison, Wis.) and water. Ovariectomized rats are allowed to lose bone for 1 month, before treatment with rhPTH (1-34) for the following 3 months. The aged osteopenic ovariectomized rats are injected subcutaneously, weekly, with 0, 10 or 30 μg/kg human PTH(1-34) for 12 weeks. Sham and ovx controls are injected with the vehicle only. Lumbar vertebra are excised at necropsy and analyzed by micro-CT (Stratec), and then prepared for biomechanical testing. Strength in Newtons, (N), is evaluated by loading vertebra specimens to failure. Significance with respect to ovx vehicle controls is indicated by * in Table 7 below (Fishers PLSD, P<0.05).

[4] = tested on: aged osteopenic ovariectomized rats; conditions: 5 μg/kg/d, aged osteopenic ovariectomized rat model, literature; cited from earlier work
[5] = 5 μg/kg/d (1 nmol/kg/d); cited from earlier work
[6] = 11 nmol/kg every 6 days for 8 weeks
[7] = 32 nmol/kg every 6 days for 8 weeks
[8] = 110 nmol/kg every 6 days for 8 weeks
[9] = up to 30 ug/kg (7 nmol/kg), 12 weeks of treatment

Compound: SEQ ID NO: 1 with 2 kD mPEG (SVSEIQLMHNLGRHLASMERVEWLRKLLQDVHNF-NH2; not fully specified (residue 26))
- Hypercalcemia at the highest dose tested ([1]; aged Ovx rats): absence of hypercalcemia
- Hypercalcemic Dose/Femoral Neck Strength Dose [1]: >10.0
- Hypercalcemic Dose/Midshaft Strength Dose [1]: >3.43
- Hypercalcemic Dose/Vertebral BMC Dose [1]: >3.43
- Hypercalcemic Dose/Vertebral BMD Dose [1]: >1.0
- Hypercalcemic Dose/Vertebral Strength Dose [1]: >10.0
- Vertebral BMC Dose [1]: 32 nmol/kg
- Vertebral BMD Dose [1]: 110 nmol/kg
- Fem Neck Strength Dose [1]: 11 nmol/kg
- Midshaft Strength Dose [1]: 32 nmol/kg
- Vertebral Strength Dose [1]: 11 nmol/kg
- Hypercalcemia Dose [1]: >110 nmol/kg
- Vertebral BMD [2, 6]: 590 mg/cc
- Serum Calcium [2, 6]: 10.45 mg/dL
- Vertebral BMD [2, 7]: 603 mg/cc
- Serum Calcium [2, 7]: 10.38 mg/dL
- Vertebral BMD [2, 8]: 623 mg/cc
- Serum Calcium [2, 8]: 10.25 mg/dL

Compound: SEQ ID NO: 3 with 2 kD mPEG (PVSEIQLMHNLGRHLASMERVEWLRKLLQDVHNF-NH2; also: 2 kD mPEG, site not given here)
- Hypercalcemic Dose/Femoral Neck Strength Dose [1]: 8.8
- Hypercalcemic Dose/Midshaft Strength Dose [1]: 8.8
- Hypercalcemic Dose/Vertebral BMC Dose [1]: 8.8
- Hypercalcemic Dose/Vertebral BMD Dose [1]: >0.9
- Hypercalcemic Dose/Vertebral Strength Dose [1]: >0.9
- Vertebral BMC Dose [1]: 11 nmol/kg
- Vertebral BMD Dose [1]: >110 nmol/kg
- Fem Neck Strength Dose [1]: 11 nmol/kg
- Midshaft Strength Dose [1]: 11 nmol/kg
- Vertebral Strength Dose [1]: >110 nmol/kg
- Hypercalcemia Dose [1]: 97 nmol/kg

- PTHR1 internalization, percent of vehicle only control (baseline=100%) (PTHR1 (PTH Receptor 1); 20 min): 166%
- PTHR1 internalization, percent of vehicle only control (baseline=100%) (PTHR1 (PTH Receptor 1); 40 min): 177%
- PTHR1 internalization, percent of vehicle only control (baseline=100%) (PTHR1 (PTH Receptor 1); 60 min): 224%
- PTHR1 internalization, percent of vehicle only control (baseline=100%) (PTHR1 (PTH Receptor 1); 180 min): 175%
Compound: PTH(1-38): positive control, parathyroid hormone fragment 1-38 (SVSEIQLMHNLGKHLNSMERVEWLRKKLQDVHNFVALG) [reference compound]
- Restoration of vertebral BMD from Ovx to sham vehicle control levels ([1]; 3-5 μg/kg/d, positive control): confirmed

Compound: SEQ ID NO: 1 but unpegylated and Lysine at amino acid 26: unpegylated molecule with the backbone of SEQ ID NO: 1 with a lysine residue at position 26 (SVSEIQLMHNLGRHLASMERVEWLRKLLQDVHNF-NH2)
- PTHR1 internalization, percent of vehicle only control (baseline=100%) (PTHR1 (PTH Receptor 1); 20 min): 106%
- PTHR1 internalization, percent of vehicle only control (baseline=100%) (PTHR1 (PTH Receptor 1); 40 min): 126%
- PTHR1 internalization, percent of vehicle only control (baseline=100%) (PTHR1 (PTH Receptor 1); 60 min): 113%
- PTHR1 internalization, percent of vehicle only control (baseline=100%) (PTHR1 (PTH Receptor 1); 180 min): 142%

- Serum Calcium ([3]; approximately 24 hours after the last dose): normal
Compound: CC[C@H](C)[C@H](NC(=O)[C@H](CCC(=O)O)NC(=O)[C@H](CO)NC(=O)[C@@H](NC(=O)[C@@H](N)CO)C(C)C)C(=O)N[C@@H](CCC(N)=O)C(=O)N[C@@H](CC(C)C)C(=O)N[C@@H](CCSC)C(=O)N[C@@H](Cc1cnc[nH]1)C(=O)N[C@@H](CC(N)=O)C(=O)N[C@@H](CC(C)C)C(=O)NCC(=O)N[C@@H](CCCCN)C(=O)N[C@@H](Cc1cnc[nH]1)C(=O)N[C@@H](CC(C)C)C(=O)N[C@@H](CC(N)=O)C(=O)N[C@@H](CO)C(=O)N[C@@H](CCSC)C(=O)N[C@@H](CCC(=O)O)C(=O)N[C@@H](CCCN=C(N)N)C(=O)N[C@H](C(=O)N[C@@H](CCC(=O)O)C(=O)N[C@@H](Cc1c[nH]c2ccccc12)C(=O)N[C@@H](CC(C)C)C(=O)N[C@@H](CCCN=C(N)N)C(=O)N[C@@H](CCCCN)C(=O)N[C@@H](CCCCN)C(=O)N[C@@H](CC(C)C)C(=O)N[C@@H](CCC(N)=O)C(=O)N[C@@H](CC(=O)O)C(=O)N[C@H](C(=O)N[C@@H](Cc1cnc[nH]1)C(=O)N[C@@H](CC(N)=O)C(=O)N[C@@H](Cc1ccccc1)C(=O)O)C(C)C)C(C)C [PTH(1-34)]
- Vertebral strength: Average Load to Failure ([3]; 10 ug/kg s.c. weekly for 12 weeks): 222 N
- Vertebral BMD: Average BMD ([3]; 10 μg/kg s.c. weekly for 12 weeks): 534 mg/mL
- Vertebral strength: Average Load to Failure ([3]; 30 ug/kg s.c. weekly for 12 weeks): 243 N
- Vertebral BMD: Average BMD ([3]; 30 μg/kg s.c. weekly for 12 weeks): 529 mg/mL
- Effect on vertebral BMD relative to Ovx vehicle controls [3, 9]: no significant effect
- Effect on vertebral biomechanical strength relative to Ovx vehicle controls [3, 9]: no significant effect
- Restoration of vertebral BMD from Ovx to sham vehicle control levels [4]: restore vertebral BMD from Ovx to sham vehicle control levels
- Systemic exposure in rats relative to PTH(1-34) (FORTEO) in humans [5]: about 3 times
